In article PMC4141206 (FEBS Open Bio, 2014):

Target: ANAPC2CW fragment (mouse ANAPC2 cullin-Winged-helix subdomain; residues 512–837) (mouse, UniProt Q8BZQ7 512-837)
Assay: NMR titration

Chain of ANAPC2CW fragment (mouse ANAPC2 cullin-Winged-helix subdomain; residues 512–837) (Q8BZQ7 512-837): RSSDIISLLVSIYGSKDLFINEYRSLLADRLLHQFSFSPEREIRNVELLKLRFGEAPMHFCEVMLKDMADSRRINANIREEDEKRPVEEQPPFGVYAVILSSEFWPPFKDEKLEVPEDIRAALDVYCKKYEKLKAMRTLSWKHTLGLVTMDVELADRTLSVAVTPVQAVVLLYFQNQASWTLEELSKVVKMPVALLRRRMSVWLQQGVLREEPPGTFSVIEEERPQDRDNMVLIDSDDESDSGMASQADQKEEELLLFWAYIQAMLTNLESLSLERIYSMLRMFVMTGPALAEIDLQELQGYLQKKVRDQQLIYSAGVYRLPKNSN

B1: Emi2 ZBR–RL fragment (mouse Emi2; residues 547–641), 13C- and 15N-labeled (domain or fragment, UniProt Q8CDI2 546-640, looked up)
chain: LTHLRSKQEQYVKVARTLFTDEALKPCPRCQSPAKYQPHKKRGLCSRLACGFDFCVLCLCAYHGSEDCRRGSAKARGSKDVLPGSAQSKRNLKRL
modifications: [15N, 13C]-labeled
  binding result: binds
